Patent publication US8840891 (RSR, dated 2014)
Where two headings read alike, the source gives them in different places.

Tests used:
Assay in all cases: cell-based or functional assay
[1] = target: wild type human TSHR (thyrotropin receptor) expressed on CHO cells (human) (UniProt P16473)
[2] = target: TSHR with Glu251 mutated to Alanine expressed on CHO cells (human) (UniProt P16473)
[3] = target: wild type human TSHR (thyrotropin receptor) expressed on CHO cells (human) (UniProt P16473); remark: listed apart in the source
[4] = target: TSHR I568T (activating mutation) expressed in CHO cells (human) (UniProt P16473)
[5] = target: TSHR Lys183Ala expressed in CHO cells (human) (UniProt P16473)
[6] = target: TSHR with Asp43 mutated to Alanine expressed on CHO cells (human) (UniProt P16473)
[7] = target: TSHR with activating mutation A623I expressed on CHO cells (human) (UniProt P16473)
[8] = target: human TSHR (wild type) expressed in CHO cells (human) (UniProt P16473)
[9] = target: TSHR with activating mutation S281I expressed on CHO cells (human) (UniProt P16473)
[10] = target: TSHR Asp151Ala expressed in CHO cells (human) (UniProt P16473)

B1: 5C9 IgG (human monoclonal autoantibody to the TSHR) (antibody, from another filing, V domains shown)
VH: EVQLVESGGGLIQPGGSLRLSCAASGFTVSSNYMSWVRQAPGKGLEWVSVTYSGGSTSYADSVKGRFTISRDNSKNTLYLQMNSLRAEDTAVYYCARGGRYCSSISCYARSGCDYWGQGTLVTVSS
VL: AIQMTQSPSSLSASVGDRVTITCRASQSISNYLNWYQQKPGKAPKLLIYAASSLQSGVPSRFSGSGSGTDFTLTISSLQPEDFATYYCQQSYSSPSTTFGQGTKLEIK
Cyclic AMP produced; 5C9 0.01 µg/mL + TSH (fmol/cell well) [1]: 21200 | Cyclic AMP produced; 5C9 0.1 µg/mL + TSH (fmol/cell well) [1]: 8640 | Cyclic AMP produced; 5C9 1.0 µg/mL + TSH (fmol/cell well) [1]: 915 | Cyclic AMP produced; 5C9 10 µg/mL + TSH (fmol/cell well) [1]: 752 | Cyclic AMP produced; 5C9 100 µg/mL + TSH (fmol/cell well) [1]: 496 | Cyclic AMP produced; 5C9 100 µg/mL only (fmol/cell well) [1]: 460 | Cyclic AMP produced; 5C9 0.01 µg/mL + TSH (fmol/cell well) [2]: 22000 | Cyclic AMP produced; 5C9 0.1 µg/mL + TSH (fmol/cell well) [2]: 15500 | Cyclic AMP produced; 5C9 1.0 µg/mL + TSH (fmol/cell well) [2]: 5240 | Cyclic AMP produced; 5C9 10 µg/mL + TSH (fmol/cell well) [2]: 1880 | Cyclic AMP produced; 5C9 100 µg/mL + TSH (fmol/cell well) [2]: 1170 | Cyclic AMP produced; 5C9 100 µg/mL only (fmol/cell well) [2]: 406 | Mutated/wild type (%); 5C9 0.01 µg/mL + TSH [2]: 104% | Mutated/wild type (%); 5C9 0.1 µg/mL + TSH [2]: 180% | Mutated/wild type (%); 5C9 1.0 µg/mL + TSH [2]: 573% | Mutated/wild type (%); 5C9 10 µg/mL + TSH [2]: 250% | Mutated/wild type (%); 5C9 100 µg/mL + TSH [2]: 236% | Mutated/wild type (%); 5C9 100 µg/mL only [2]: 88% | Cyclic AMP concentration (basal) in the presence of 5C9 IgG (1 µg/mL) (fmol/cell well) [3]: 1870 | Cyclic AMP produced; 5C9 0.01 µg/mL + TSH (fmol/cell well) [3]: 13100 | Cyclic AMP produced; 5C9 0.1 µg/mL + TSH (fmol/cell well) [3]: 7810 | Cyclic AMP produced; 5C9 1.0 µg/mL + TSH (fmol/cell well) [3]: 2020 | Cyclic AMP produced; 5C9 10 µg/mL + TSH (fmol/cell well) [3]: 306 | Cyclic AMP produced; 5C9 100 µg/mL + TSH (fmol/cell well) [3]: 84 | Cyclic AMP produced; 5C9 100 µg/mL only (fmol/cell well) [3]: 47 | Cyclic AMP produced; Experiment 1; 5C9 0.01 µg/mL + TSH (fmol/cell well) [3]: 17000 | Cyclic AMP produced; Experiment 1; 5C9 0.1 µg/mL + TSH (fmol/cell well) [3]: 5950 | Cyclic AMP produced; Experiment 1; 5C9 1.0 µg/mL + TSH (fmol/cell well) [3]: 1060 | Cyclic AMP produced; Experiment 1; 5C9 10 µg/mL + TSH (fmol/cell well) [3]: 496 | Cyclic AMP produced; Experiment 1; 5C9 100 µg/mL + TSH (fmol/cell well) [3]: 193 | Cyclic AMP produced; Experiment 1; 5C9 100 µg/mL only (fmol/cell well) [3]: 1270 | Cyclic AMP produced; Experiment 2; 5C9 0.01 µg/mL + TSH (fmol/cell well) [3]: 18600 | Cyclic AMP produced; Experiment 2; 5C9 0.1 µg/mL + TSH (fmol/cell well) [3]: 4220 | Cyclic AMP produced; Experiment 2; 5C9 1.0 µg/mL + TSH (fmol/cell well) [3]: 738 | Cyclic AMP produced; Experiment 2; 5C9 10 µg/mL + TSH (fmol/cell well) [3]: 214 | Cyclic AMP produced; Experiment 2; 5C9 100 µg/mL + TSH (fmol/cell well) [3]: 238 | Cyclic AMP produced; Experiment 2; 5C9 100 µg/mL only (fmol/cell well) [3]: 211 | % inhibition of basal cyclic AMP activity; 5C9 IgG 1 µg/mL [4]: 83% | % inhibition of TSH stimulation of cyclic AMP; 5C9 IgG 1 µg/mL [5]: 28% | % inhibition of TSH stimulation of cyclic AMP; 5C9 IgG 100 µg/mL [5]: 43% | Cyclic AMP produced; 5C9 0.01 µg/mL + TSH (fmol/cell well) [6]: 12700 | Cyclic AMP produced; 5C9 0.1 µg/mL + TSH (fmol/cell well) [6]: 6730 | Cyclic AMP produced; 5C9 1.0 µg/mL + TSH (fmol/cell well) [6]: 471 | Cyclic AMP produced; 5C9 10 µg/mL + TSH (fmol/cell well) [6]: 119 | Cyclic AMP produced; 5C9 100 µg/mL + TSH (fmol/cell well) [6]: 31 | Cyclic AMP produced; 5C9 100 µg/mL only (fmol/cell well) [6]: 206 | Mutated/wild type (%); 5C9 0.01 µg/mL + TSH [6]: 97% | Mutated/wild type (%); 5C9 0.1 µg/mL + TSH [6]: 86% | Mutated/wild type (%); 5C9 1.0 µg/mL + TSH [6]: 23% | Mutated/wild type (%); 5C9 10 µg/mL + TSH [6]: 39% | Mutated/wild type (%); 5C9 100 µg/mL + TSH [6]: 37% | Mutated/wild type (%); 5C9 100 µg/mL only [6]: 438% | Cyclic AMP concentration (basal) in the presence of 5C9 IgG (1 µg/mL) (fmol/cell well) [7]: 1910 | inhibition of basal cyclic AMP activity; 5C9 IgG at 1 µg/mL [7]: 49% | % inhibition of TSH stimulation of cyclic AMP; 5C9 IgG 1 µg/mL; wild type in the Asp151Ala experiment [8]: 88% | % inhibition of TSH stimulation of cyclic AMP; 5C9 IgG 1 µg/mL; wild type in the Lys183Ala experiment [8]: 84% | % inhibition of TSH stimulation of cyclic AMP; 5C9 IgG 100 µg/mL; wild type in the Lys183Ala experiment [8]: 93% | activity in blocking TSH stimulation of cyclic AMP, relative to donor serum IgG [8]: 3900 times | basal cyclic AMP level relative to cyclic AMP assay buffer; 5C9 IgG 1 µg/mL; CHO cells with approximately 5x10^5 wild type TSHRs per cell [8]: 33% | cyclic AMP production; 5C9 IgG 0.001 µg/mL + M22 Fab 3 ng/mL (fmol/cell well) [8]: 11600 | cyclic AMP production; 5C9 IgG 0.001 µg/mL + pTSH 3 ng/mL (fmol/cell well) [8]: 14100 | cyclic AMP production; 5C9 IgG 0.001 µg/mL only (fmol/cell well) [8]: 554 | cyclic AMP production; 5C9 IgG 0.01 µg/mL + M22 Fab 3 ng/mL (fmol/cell well) [8]: 9980 | cyclic AMP production; 5C9 IgG 0.01 µg/mL + pTSH 3 ng/mL (fmol/cell well) [8]: 15000 | cyclic AMP production; 5C9 IgG 0.01 µg/mL only (fmol/cell well) [8]: 578 | cyclic AMP production; 5C9 IgG 0.1 µg/mL + M22 Fab 3 ng/mL (fmol/cell well) [8]: 1300 | cyclic AMP production; 5C9 IgG 0.1 µg/mL + pTSH 3 ng/mL (fmol/cell well) [8]: 3920 | cyclic AMP production; 5C9 IgG 0.1 µg/mL only (fmol/cell well) [8]: 404 | cyclic AMP production; 5C9 IgG 1 µg/mL + M22 Fab 3 ng/mL (fmol/cell well) [8]: 956 | cyclic AMP production; 5C9 IgG 1 µg/mL + pTSH 3 ng/mL (fmol/cell well) [8]: 1870 | cyclic AMP production; 5C9 IgG 1 µg/mL only (fmol/cell well) [8]: 376 | cyclic AMP production; 5C9 IgG 10 µg/mL + M22 Fab 3 ng/mL; mean of duplicate samples (fmol/cell well) [8]: 638 | cyclic AMP production; 5C9 IgG 10 µg/mL + pTSH 3 ng/mL (fmol/cell well) [8]: 1030 | cyclic AMP production; 5C9 IgG 10 µg/mL only (fmol/cell well) [8]: 360 | cyclic AMP production; 5C9 IgG 100 µg/mL + M22 Fab 3 ng/mL (fmol/cell well) [8]: 354 | cyclic AMP production; 5C9 IgG 100 µg/mL + pTSH 3 ng/mL (fmol/cell well) [8]: 1090 | cyclic AMP production; 5C9 IgG 100 µg/mL only (fmol/cell well) [8]: 426 | cyclic AMP; 5C9 IgG 0.01 µg/mL + pTSH (3 ng/mL) (fmol/cell well) [8]: 19000 | cyclic AMP; 5C9 IgG 0.02 µg/mL + pTSH (3 ng/mL) (fmol/cell well) [8]: 16400 | cyclic AMP; 5C9 IgG 0.04 µg/mL + pTSH (3 ng/mL) (fmol/cell well) [8]: 13900 | cyclic AMP; 5C9 IgG 0.06 µg/mL + pTSH (3 ng/mL); single determination (fmol/cell well) [8]: 13300 | cyclic AMP; 5C9 IgG 0.08 µg/mL + pTSH (3 ng/mL) (fmol/cell well) [8]: 14500 | cyclic AMP; 5C9 IgG 0.1 µg/mL + pTSH (3 ng/mL) (fmol/cell well) [8]: 11900 | cyclic AMP; 5C9 IgG 0.5 µg/mL + pTSH (3 ng/mL) (fmol/cell well) [8]: 4750 | cyclic AMP; 5C9 IgG 1 µg/mL + pTSH (3 ng/mL) (fmol/cell well) [8]: 2210 | cyclic AMP; 5C9 IgG only 1 µg/mL (fmol/cell well) [8]: 141 | cyclic AMP; Example 1; 5C9 IgG 10 µg/mL + TSH (fmol/cell well) [8]: 247 | cyclic AMP; Example 1; 5C9 IgG 100 µg/mL + TSH (fmol/cell well) [8]: 754 | cyclic AMP; Example 1; 5C9 IgG 100 µg/mL only (fmol/cell well) [8]: 237 | cyclic AMP; Example 2; 5C9 IgG 10 µg/mL + TSH (fmol/cell well) [8]: 723 | cyclic AMP; Example 2; 5C9 IgG 100 µg/mL + TSH (fmol/cell well) [8]: 1110 | cyclic AMP; Example 2; 5C9 IgG 100 µg/mL only (fmol/cell well) [8]: 338 | inhibition of cyclic AMP production stimulated by patient serum T3; 5C9 IgG 100 µg/mL [8]: 50% | Cyclic AMP concentration (basal) in the presence of 5C9 IgG (1 µg/mL) (fmol/cell well) [9]: 655 | % inhibition of TSH stimulation of cyclic AMP; 5C9 IgG 1 µg/mL [10]: 49%
